No end group written: not given here. *: point of attachment. Biotin = O=C1N[C@H]2[C@H](CS[C@H]2CCCCC(=O)*)N1
How the values were obtained:
Format in all cases: biochemical
Lyn = Lyn (Homo sapiens, UniProt P07948); assay: ELISA specificity assay, phosphorylation by Lyn; conditions: conditions similar to ALK ELISA
Description: (§1) Referring now to FIG. 1 which illustrates ALAStide-A (SEQ. ID NO. 1) and ALAStide-B (SEQ. ID NO. 2) being phosphorylated by ALK kinase in vitro, the results are obtained by an enzyme-linked immunosorbent assay (ELISA). […] Total reaction volume is 50 μL, and reaction temperature is set between 35-38° C. At selected time points, 5 μL, sample was taken out and quenched in 20 μL 40 mM EDTA solution. The quenched samples were then used to perform ELISA assay.
(§2) The specificity of the ALK-specific biosensors, ALAStide-A and ALAStide-B is shown in an ELISA assay, with YFF peptide used as a positive and negative control. The ALK-specific biosensors were assayed for phosphorylation activity against ALK, Lyn, Abl, and Csk. YFF peptide, whose kinase specificity (as reported in Biochemistry 44, 8533-8542, 2005) is used as a reference. The experimental condition may be similar to those described for the ELISA assay above.

ALK kinase = ALK kinase (Homo sapiens, UniProt Q9UM73); assay: ELISA assay of peptide phosphorylation by ALK kinase in vitro; conditions: 25 μM peptides, 0.1 unit kinase, 100 μM ATP, 10 mM Mg2+, pH 7.5, 35-38° C.
Sequence of ALK kinase (Q9UM73 19-1620): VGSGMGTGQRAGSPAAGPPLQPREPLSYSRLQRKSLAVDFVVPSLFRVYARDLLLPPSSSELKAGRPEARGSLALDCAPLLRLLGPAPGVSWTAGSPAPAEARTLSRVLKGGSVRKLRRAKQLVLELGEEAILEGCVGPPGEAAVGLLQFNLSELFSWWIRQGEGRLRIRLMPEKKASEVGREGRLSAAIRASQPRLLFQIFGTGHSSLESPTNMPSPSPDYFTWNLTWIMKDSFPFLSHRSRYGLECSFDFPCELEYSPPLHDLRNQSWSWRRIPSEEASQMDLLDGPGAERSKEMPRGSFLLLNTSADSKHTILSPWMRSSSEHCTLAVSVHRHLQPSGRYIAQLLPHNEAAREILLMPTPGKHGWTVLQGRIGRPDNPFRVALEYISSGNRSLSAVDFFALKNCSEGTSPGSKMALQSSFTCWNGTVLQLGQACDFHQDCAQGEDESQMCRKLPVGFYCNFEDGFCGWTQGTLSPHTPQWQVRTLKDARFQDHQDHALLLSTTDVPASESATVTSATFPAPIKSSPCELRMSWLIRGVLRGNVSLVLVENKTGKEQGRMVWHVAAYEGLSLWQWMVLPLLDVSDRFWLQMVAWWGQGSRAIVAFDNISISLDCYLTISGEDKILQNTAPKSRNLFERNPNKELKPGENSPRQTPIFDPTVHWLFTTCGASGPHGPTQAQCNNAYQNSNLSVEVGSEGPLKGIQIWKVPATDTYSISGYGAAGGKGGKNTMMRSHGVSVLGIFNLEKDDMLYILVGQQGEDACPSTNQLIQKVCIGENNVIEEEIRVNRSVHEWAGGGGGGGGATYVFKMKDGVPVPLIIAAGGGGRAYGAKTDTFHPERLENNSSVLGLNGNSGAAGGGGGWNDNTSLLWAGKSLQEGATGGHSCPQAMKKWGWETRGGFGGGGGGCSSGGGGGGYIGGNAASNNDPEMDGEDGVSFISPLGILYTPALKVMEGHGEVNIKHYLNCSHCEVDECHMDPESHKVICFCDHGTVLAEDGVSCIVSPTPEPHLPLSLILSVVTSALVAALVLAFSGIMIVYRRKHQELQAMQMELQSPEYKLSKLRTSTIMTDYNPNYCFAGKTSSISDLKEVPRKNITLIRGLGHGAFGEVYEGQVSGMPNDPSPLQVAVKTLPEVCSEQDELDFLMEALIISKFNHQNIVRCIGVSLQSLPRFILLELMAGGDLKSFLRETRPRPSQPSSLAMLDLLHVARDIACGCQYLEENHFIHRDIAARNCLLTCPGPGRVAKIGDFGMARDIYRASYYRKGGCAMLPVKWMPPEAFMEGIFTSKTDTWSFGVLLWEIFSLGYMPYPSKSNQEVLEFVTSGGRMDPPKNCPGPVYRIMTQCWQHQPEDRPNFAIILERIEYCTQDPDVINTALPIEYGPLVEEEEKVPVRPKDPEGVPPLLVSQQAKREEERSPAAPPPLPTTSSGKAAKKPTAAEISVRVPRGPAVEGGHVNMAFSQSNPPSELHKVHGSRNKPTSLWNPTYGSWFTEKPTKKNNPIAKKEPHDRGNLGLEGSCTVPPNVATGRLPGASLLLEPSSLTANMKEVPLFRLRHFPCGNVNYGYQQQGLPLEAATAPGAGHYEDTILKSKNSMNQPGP
Description: as §1

Abl = Abl (Homo sapiens, UniProt P00519); assay: ELISA specificity assay, phosphorylation by Abl; conditions: conditions similar to ALK ELISA
Sequence of Abl (P00519 whole entry, species assumed): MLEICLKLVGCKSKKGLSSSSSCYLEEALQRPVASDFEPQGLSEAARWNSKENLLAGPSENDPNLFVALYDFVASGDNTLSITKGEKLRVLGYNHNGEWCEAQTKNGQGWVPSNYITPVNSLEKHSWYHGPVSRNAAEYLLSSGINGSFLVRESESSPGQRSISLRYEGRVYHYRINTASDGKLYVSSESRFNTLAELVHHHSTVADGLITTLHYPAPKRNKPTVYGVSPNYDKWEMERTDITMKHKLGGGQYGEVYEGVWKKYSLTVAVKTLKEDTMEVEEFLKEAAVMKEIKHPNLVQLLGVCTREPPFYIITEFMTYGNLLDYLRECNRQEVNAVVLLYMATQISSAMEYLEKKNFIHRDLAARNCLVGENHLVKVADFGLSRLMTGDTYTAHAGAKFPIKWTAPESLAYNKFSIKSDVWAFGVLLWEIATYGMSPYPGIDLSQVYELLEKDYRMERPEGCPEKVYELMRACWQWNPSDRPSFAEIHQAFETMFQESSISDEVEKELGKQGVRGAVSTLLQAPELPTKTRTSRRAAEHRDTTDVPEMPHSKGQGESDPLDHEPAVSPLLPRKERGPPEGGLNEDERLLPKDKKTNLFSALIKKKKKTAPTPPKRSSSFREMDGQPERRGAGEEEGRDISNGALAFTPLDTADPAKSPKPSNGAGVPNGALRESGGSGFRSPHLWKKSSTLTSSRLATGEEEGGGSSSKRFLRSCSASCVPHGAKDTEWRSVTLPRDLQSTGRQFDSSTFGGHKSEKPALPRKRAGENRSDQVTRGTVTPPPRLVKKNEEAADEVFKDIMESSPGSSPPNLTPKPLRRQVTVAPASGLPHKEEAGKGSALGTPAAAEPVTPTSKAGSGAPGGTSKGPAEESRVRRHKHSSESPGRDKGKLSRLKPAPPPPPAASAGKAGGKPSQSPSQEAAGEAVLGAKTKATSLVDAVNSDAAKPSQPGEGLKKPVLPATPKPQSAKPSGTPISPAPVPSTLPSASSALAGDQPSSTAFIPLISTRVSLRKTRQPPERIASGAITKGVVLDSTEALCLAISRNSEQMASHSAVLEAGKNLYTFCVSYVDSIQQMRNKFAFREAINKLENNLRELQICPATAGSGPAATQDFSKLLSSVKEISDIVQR
Description: as §1, §2

Csk = Csk (Homo sapiens, UniProt P41240); assay: ELISA specificity assay, phosphorylation by Csk; conditions: conditions similar to ALK ELISA
Description: as §1, §2

Sequence of Lyn (P07948 whole entry, species assumed): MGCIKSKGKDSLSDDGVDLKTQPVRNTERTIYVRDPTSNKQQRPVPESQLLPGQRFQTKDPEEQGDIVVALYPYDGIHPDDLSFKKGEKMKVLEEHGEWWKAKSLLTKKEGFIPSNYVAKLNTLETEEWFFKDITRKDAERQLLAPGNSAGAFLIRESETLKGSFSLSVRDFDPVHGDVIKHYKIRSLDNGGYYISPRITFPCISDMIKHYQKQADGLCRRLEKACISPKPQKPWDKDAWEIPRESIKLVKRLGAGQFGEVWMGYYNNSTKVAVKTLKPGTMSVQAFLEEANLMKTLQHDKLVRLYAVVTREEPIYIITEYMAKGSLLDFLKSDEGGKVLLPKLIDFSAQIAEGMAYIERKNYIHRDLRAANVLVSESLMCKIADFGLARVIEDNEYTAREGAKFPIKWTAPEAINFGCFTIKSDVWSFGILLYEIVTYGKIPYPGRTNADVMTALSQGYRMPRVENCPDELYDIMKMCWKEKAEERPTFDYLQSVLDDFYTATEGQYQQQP

| phosphorylation by Lyn (ELISA) (Lyn) | phosphorylation by Abl (ELISA) (Abl) | phosphorylation by Csk (ELISA) (Csk) | Substance | phosphorylation by ALK kinase (ELISA), compared with YFF peptide (ALK kinase) |
| --- | --- | --- | --- | --- |
| not phosphorylated | not phosphorylated | not phosphorylated | FDMDRDIYRMSFFRKGGKbGG (FDMDRDIYRMSFFRKGGK(Biotin)GG) [ALAStide-A, ALK-specific biosensor peptide; Kb is biotinylated lysine] | higher phosphorylation activity than YFF and ALAStide-B |
| not phosphorylated | not phosphorylated | not phosphorylated | FDMDRDIYTNTFFRKGGKbGG (FDMDRDIYTNTFFRKGGK(Biotin)GG) [ALAStide-B, ALK-specific biosensor peptide; Kb is biotinylated lysine] | comparable phosphorylation level with YFF peptide |
| lack of affinity | lack of affinity | lack of affinity | FGMARDIYRASFFRKGGKbGG (FGMARDIYRASFFRKGGK(Biotin)GG) [YFF peptide, known peptide substrate of ALK in the literature, reference compound] |  |
